B1: DVL3 (parent)
chain: FCADNPSELPPPMERTGGIGDSRP
B2: PDZK1 (parent)
chain: RETASLKLLPHQPRIVEMKKGSNG
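Also: lentivirally expressed fusions sorted by FACS into six bins by GFP to DsRed ratio, PSI derived from sequencing read proportions per bin multiplied by bin number.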

In one data set the parent is B1. Put plainly: protein stability index of a GFP-peptide fusion (GPS, HEK-293T) (PSI 1-6); higher = more stable. The settings on record: c terminus: a fixed tail appended.
Regarding FCADNPSELPPPMERTGGIGPSRP [D21P], the protein stability index came out at 4.16.
Take FCADNPSELPPPMERTGGIGYSRP [D21Y]: the protein stability index is 3.92.
Same read-out and setting: for FCADNPSELPPPMERTGGIGGSRP [D21G] the value was 4.36; for FCADNPSELPPPMERTGGIGMSRP [D21M], 3.67; for FCADNPSELPPPMERTGGIGASRP [D21A], 4.36.
In the case of FCADNPSELPPPMERTGGIGESRP [D21E], the protein stability index came out at 5.27.
With FCADNPSELPPPMERTGGIGLSRP [D21L], the protein stability index stood at 3.48.
Take FCADNPSELPPPMERTGGIGWSRP [D21W]: the protein stability index was found to be 2.97.
Regarding FCADNPSELPPPMERTGGIGHSRP [D21H], the protein stability index came to 4.37.
As to FCADNPSELPPPMERTGGIGKSRP [D21K], the protein stability index worked out at 4.21.
On to FCADNPSELPPPMERTGGIGFSRP [D21F], for which the protein stability index amounted to 3.89.
With FCADNPSELPPPMERTGGIGISRP [D21I], the protein stability index stood at 3.77.
Take FCADNPSELPPPMERTGGIGNSRP [D21N]: the protein stability index is 4.11.
On the same count and under the same terms, for FCADNPSELPPPMERTGGIGSSRP [D21S] the value was 4.35; for FCADNPSELPPPMERTGGIGTSRP [D21T], 4.52; for FCADNPSELPPPMERTGGIGRSRP [D21R], 3.71.
For the variant FCADNPSELPPPMERTGGIGQSRP [D21Q], the protein stability index amounted to 4.58.
On to FCADNPSELPPPMERTGRIGDSRP [G18R], for which the protein stability index came out at 4.34.
For the variant FCADNPSELPPPMERTGMIGDSRP [G18M], the protein stability index is 4.17.
As to FCADNPSELPPPMERTGPIGDSRP [G18P], the protein stability index is 4.04.
In the case of FCADNPSELPPPMERTGAIGDSRP [G18A], the protein stability index was determined as 4.49.
As to FCADNPSELPPPMERTGSIGDSRP [G18S], the protein stability index came out at 4.64.
Regarding FCADNPSELPPPMERTGHIGDSRP [G18H], the protein stability index came to 4.34.
On to FCADNPSELPPPMERTGWIGDSRP [G18W], for which the protein stability index was 3.41.
Consider FCADNPSELPPPMERTGIIGDSRP [G18I], for which the protein stability index came to 4.05.
Regarding FCADNPSELPPPMERTGEIGDSRP [G18E], the protein stability index stood at 5.06.
Take FCADNPSELPPPMERTGTIGDSRP [G18T]: the protein stability index came to 4.47.
For the variant FCADNPSELPPPMERTGLIGDSRP [G18L], the protein stability index stood at 4.34.
For the variant FCADNPSELPPPMERTGYIGDSRP [G18Y], the protein stability index was found to be 3.38.
The same measure, in the same setting: for FCADNPSELPPPMERTGCIGDSRP [G18C] the value was 4.57.
For FCADNPSELPPPMERTGDIGDSRP [G18D], the protein stability index turned out to be 4.77.
Take FCADNPSELPPPMERTGQIGDSRP [G18Q]: the protein stability index was found to be 4.81.
Consider FCADNPSELPPPMERTGVIGDSRP [G18V], for which the protein stability index amounted to 4.
On to FCADNPSELPPPMERTGFIGDSRP [G18F], for which the protein stability index was found to be 4.03.
Consider FCADNPSELPPPMERTGNIGDSRP [G18N], for which the protein stability index was determined as 4.89.
FCADNPSELPPPMERTGKIGDSRP [G18K]: the protein stability index amounted to 4.88.

The variants in the next data set derive from B2. The data set is described as above. As to conditions: c terminus: a fixed tail appended.
With RITASLKLLPHQPRIVEMKKGSNG [E2I], the protein stability index was 2.23.
As to RTTASLKLLPHQPRIVEMKKGSNG [E2T], the protein stability index was 3.39.
Consider RMTASLKLLPHQPRIVEMKKGSNG [E2M], for which the protein stability index is 3.08.
With RWTASLKLLPHQPRIVEMKKGSNG [E2W], the protein stability index is 2.36.
Take RQTASLKLLPHQPRIVEMKKGSNG [E2Q]: the protein stability index was found to be 3.73.
Regarding RDTASLKLLPHQPRIVEMKKGSNG [E2D], the protein stability index stood at 3.4.
Still for that read-out and setting: for RNTASLKLLPHQPRIVEMKKGSNG [E2N] the value was 3.57.
On to RVTASLKLLPHQPRIVEMKKGSNG [E2V], for which the protein stability index amounted to 2.62.
In the case of RYTASLKLLPHQPRIVEMKKGSNG [E2Y], the protein stability index was determined as 2.64.
Take RPTASLKLLPHQPRIVEMKKGSNG [E2P]: the protein stability index is 3.65.
The same measure, in the same setting: for RCTASLKLLPHQPRIVEMKKGSNG [E2C] the value was 2.1; for RRTASLKLLPHQPRIVEMKKGSNG [E2R], 3.63.
As to RFTASLKLLPHQPRIVEMKKGSNG [E2F], the protein stability index worked out at 3.45.
On to RKTASLKLLPHQPRIVEMKKGSNG [E2K], for which the protein stability index amounted to 3.58.
With RATASLKLLPHQPRIVEMKKGSNG [E2A], the protein stability index is 2.73.
RSTASLKLLPHQPRIVEMKKGSNG [E2S]: the protein stability index was found to be 3.62.
The same measure, in the same setting: for REPASLKLLPHQPRIVEMKKGSNG [T3P] the value was 3.75; for REVASLKLLPHQPRIVEMKKGSNG [T3V], 3.25; for REAASLKLLPHQPRIVEMKKGSNG [T3A], 3.26.
For REHASLKLLPHQPRIVEMKKGSNG [T3H], the protein stability index is 3.31.
With REFASLKLLPHQPRIVEMKKGSNG [T3F], the protein stability index is 3.08.
Regarding REMASLKLLPHQPRIVEMKKGSNG [T3M], the protein stability index turned out to be 3.14.
For RESASLKLLPHQPRIVEMKKGSNG [T3S], the protein stability index is 3.62.
REWASLKLLPHQPRIVEMKKGSNG [T3W]: the protein stability index stood at 2.58.
Turning to REDASLKLLPHQPRIVEMKKGSNG [T3D], the protein stability index was 3.39.
On to REYASLKLLPHQPRIVEMKKGSNG [T3Y], for which the protein stability index came to 3.02.
Consider REKASLKLLPHQPRIVEMKKGSNG [T3K], for which the protein stability index came out at 3.53.
Take REEASLKLLPHQPRIVEMKKGSNG [T3E]: the protein stability index is 3.65.
RERASLKLLPHQPRIVEMKKGSNG [T3R]: the protein stability index is 3.28.
On the same count and under the same terms, for REIASLKLLPHQPRIVEMKKGSNG [T3I] the value was 3.6.
Take REQASLKLLPHQPRIVEMKKGSNG [T3Q]: the protein stability index stood at 3.41.
RECASLKLLPHQPRIVEMKKGSNG [T3C]: the protein stability index stood at 2.35.
On the same count and under the same terms, for REGASLKLLPHQPRIVEMKKGSNG [T3G] the value was 3.27.
RETCSLKLLPHQPRIVEMKKGSNG [A4C]: the protein stability index was 3.12.
Regarding RETKSLKLLPHQPRIVEMKKGSNG [A4K], the protein stability index came out at 3.79.
For RETISLKLLPHQPRIVEMKKGSNG [A4I], the protein stability index amounted to 2.47.
For RETDSLKLLPHQPRIVEMKKGSNG [A4D], the protein stability index stood at 3.15.
In the case of RETGSLKLLPHQPRIVEMKKGSNG [A4G], the protein stability index was found to be 3.17.
For RETESLKLLPHQPRIVEMKKGSNG [A4E], the protein stability index was 3.43.
Same read-out and setting: for RETFSLKLLPHQPRIVEMKKGSNG [A4F] the value was 2.66.
As to AETASLKLLPHQPRIVEMKKGSNG [R1A], the protein stability index worked out at 3.58.
Take LETASLKLLPHQPRIVEMKKGSNG [R1L]: the protein stability index amounted to 3.65.
Turning to TETASLKLLPHQPRIVEMKKGSNG [R1T], the protein stability index was determined as 2.98.
As to KETASLKLLPHQPRIVEMKKGSNG [R1K], the protein stability index was 3.67.
For the variant SETASLKLLPHQPRIVEMKKGSNG [R1S], the protein stability index is 3.41.
Take METASLKLLPHQPRIVEMKKGSNG [R1M]: the protein stability index turned out to be 2.38.
Take VETASLKLLPHQPRIVEMKKGSNG [R1V]: the protein stability index is 3.14.
Consider QETASLKLLPHQPRIVEMKKGSNG [R1Q], for which the protein stability index amounted to 3.4.
Take EETASLKLLPHQPRIVEMKKGSNG [R1E]: the protein stability index stood at 3.36.
On the same count and under the same terms, for NETASLKLLPHQPRIVEMKKGSNG [R1N] the value was 3.8; for PETASLKLLPHQPRIVEMKKGSNG [R1P], 3.24; for FETASLKLLPHQPRIVEMKKGSNG [R1F], 2.99.
On to GETASLKLLPHQPRIVEMKKGSNG [R1G], for which the protein stability index stood at 2.8.
For DETASLKLLPHQPRIVEMKKGSNG [R1D], the protein stability index came to 3.19.
Regarding WETASLKLLPHQPRIVEMKKGSNG [R1W], the protein stability index was determined as 2.09.
As to HETASLKLLPHQPRIVEMKKGSNG [R1H], the protein stability index came to 3.14.
Consider YETASLKLLPHQPRIVEMKKGSNG [R1Y], for which the protein stability index was 3.14.
Regarding CETASLKLLPHQPRIVEMKKGSNG [R1C], the protein stability index was 3.34.

Values taken from the supplement of paper PMC10567573.
